Key:
[1] = biological target: CD3 on human T cells (human) (UniProt P07766); test: flow cytometry on T cells coated with 1 µg/mL antibody
[2] = biological target: Carcinoembryonic antigen (CEA) on CEA positive cells (UniProt P06731); test: cell-based or functional assay
Sequence of UniProt P06731 (P06731 35-702): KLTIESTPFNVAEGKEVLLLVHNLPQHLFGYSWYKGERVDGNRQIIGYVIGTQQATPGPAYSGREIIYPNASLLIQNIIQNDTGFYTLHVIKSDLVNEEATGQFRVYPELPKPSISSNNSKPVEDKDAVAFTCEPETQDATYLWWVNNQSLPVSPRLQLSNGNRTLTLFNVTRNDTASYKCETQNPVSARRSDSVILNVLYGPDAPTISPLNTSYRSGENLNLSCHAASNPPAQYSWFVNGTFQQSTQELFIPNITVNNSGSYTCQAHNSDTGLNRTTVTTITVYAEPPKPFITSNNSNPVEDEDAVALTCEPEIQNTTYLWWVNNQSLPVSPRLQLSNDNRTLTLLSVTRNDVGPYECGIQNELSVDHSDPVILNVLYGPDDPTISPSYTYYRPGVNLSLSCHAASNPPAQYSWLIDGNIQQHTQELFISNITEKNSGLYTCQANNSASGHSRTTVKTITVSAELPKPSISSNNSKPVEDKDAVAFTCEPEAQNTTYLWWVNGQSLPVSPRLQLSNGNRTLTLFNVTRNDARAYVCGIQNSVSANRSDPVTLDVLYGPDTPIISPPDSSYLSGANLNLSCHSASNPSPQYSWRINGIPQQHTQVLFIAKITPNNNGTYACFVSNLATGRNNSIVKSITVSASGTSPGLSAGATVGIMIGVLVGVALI

Sequence of UniProt P07766 (P07766 23-207, chain 1 of 3): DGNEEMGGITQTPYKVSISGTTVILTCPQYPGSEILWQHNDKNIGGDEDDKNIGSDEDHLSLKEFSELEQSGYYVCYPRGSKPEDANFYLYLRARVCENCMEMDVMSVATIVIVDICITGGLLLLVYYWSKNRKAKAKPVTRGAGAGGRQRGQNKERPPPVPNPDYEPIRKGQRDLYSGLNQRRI
Sequence of UniProt P07766 (P04234 22-171, chain 2 of 3, further chain): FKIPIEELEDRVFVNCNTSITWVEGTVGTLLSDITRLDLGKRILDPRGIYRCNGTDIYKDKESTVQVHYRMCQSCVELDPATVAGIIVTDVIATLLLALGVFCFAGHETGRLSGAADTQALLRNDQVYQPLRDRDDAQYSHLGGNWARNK
Sequence of UniProt P07766 (P09693 23-182, chain 3 of 3, further chain): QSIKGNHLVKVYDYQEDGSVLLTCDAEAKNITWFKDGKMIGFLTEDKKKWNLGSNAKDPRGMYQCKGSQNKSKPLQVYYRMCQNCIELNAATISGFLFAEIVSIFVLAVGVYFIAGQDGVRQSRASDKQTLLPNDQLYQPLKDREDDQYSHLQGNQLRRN

Row | Substance | percent of cells labelled [1] [%] | redirected cell lysis, T-cells coated with preformed dbBiTEs, E:T 10:1 [2] [%] | redirected cell lysis, on-cell (in situ) generated dbBiTE coated T-cells, E:T 10:1 [2] [%]
1 | DBCO-hOKT3 (humanized anti-human CD3 antibody hOKT3 conjugated to DBCO) | > 90 | – | –
2 | dbBiTE (dual specific bivalent bispecific T-cell engaging antibody: DBCO-hOKT3 clicked to azide-M5A) (bispecific antibody) | – | 90 | 60

Source: patent US20220119552A1
